Patent publication US20240076386A1 (Pfizer, published 2024)

Columns and labels:
[1] = target: T1, cynomolgus monkey E-selectin, cell-surface expressed (cynomolgus monkey, UniProt P16581 22-610 (human entry)); assay: cell-based or functional assay
T1 chain: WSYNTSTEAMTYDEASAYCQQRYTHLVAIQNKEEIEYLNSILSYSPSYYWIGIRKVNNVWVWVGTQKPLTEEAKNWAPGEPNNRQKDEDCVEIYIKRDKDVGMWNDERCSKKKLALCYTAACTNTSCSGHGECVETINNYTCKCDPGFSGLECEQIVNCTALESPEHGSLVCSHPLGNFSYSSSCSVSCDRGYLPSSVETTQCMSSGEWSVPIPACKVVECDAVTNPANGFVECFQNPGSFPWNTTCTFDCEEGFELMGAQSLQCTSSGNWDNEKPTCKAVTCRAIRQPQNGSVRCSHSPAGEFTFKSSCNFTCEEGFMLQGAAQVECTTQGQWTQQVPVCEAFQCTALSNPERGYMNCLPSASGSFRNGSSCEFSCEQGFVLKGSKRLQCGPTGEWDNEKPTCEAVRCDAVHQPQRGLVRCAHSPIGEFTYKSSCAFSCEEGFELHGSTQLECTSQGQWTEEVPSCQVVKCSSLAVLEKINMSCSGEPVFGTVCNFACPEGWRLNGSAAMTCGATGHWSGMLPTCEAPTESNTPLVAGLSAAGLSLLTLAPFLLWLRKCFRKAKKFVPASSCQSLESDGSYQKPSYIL

[2] = target: T2, human E-selectin, cell-surface expressed (human, UniProt P16581 22-610); assay: cell-based or functional assay
T2 sequence: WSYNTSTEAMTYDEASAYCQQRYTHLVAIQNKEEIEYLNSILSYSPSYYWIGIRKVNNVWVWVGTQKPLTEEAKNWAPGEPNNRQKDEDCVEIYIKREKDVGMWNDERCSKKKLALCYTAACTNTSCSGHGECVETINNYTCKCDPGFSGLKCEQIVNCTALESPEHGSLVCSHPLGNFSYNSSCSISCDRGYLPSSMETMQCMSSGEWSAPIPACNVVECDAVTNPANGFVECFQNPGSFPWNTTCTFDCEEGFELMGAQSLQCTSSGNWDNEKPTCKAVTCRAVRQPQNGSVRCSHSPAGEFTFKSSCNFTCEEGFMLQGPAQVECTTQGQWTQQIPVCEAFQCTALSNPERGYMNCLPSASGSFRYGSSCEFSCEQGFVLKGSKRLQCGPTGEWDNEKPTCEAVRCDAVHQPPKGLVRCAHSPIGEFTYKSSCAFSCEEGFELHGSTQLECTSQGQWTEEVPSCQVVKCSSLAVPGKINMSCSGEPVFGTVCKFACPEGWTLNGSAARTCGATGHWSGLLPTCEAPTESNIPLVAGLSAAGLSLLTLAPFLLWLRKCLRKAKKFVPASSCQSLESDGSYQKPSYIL

[3] = target: T3, recombinant histidine-tagged human E-selectin (Sino Biologicals; 13025-H08H) (human, UniProt P16581 22-556); assay: cell-based or functional assay
T3 sequence (looked up): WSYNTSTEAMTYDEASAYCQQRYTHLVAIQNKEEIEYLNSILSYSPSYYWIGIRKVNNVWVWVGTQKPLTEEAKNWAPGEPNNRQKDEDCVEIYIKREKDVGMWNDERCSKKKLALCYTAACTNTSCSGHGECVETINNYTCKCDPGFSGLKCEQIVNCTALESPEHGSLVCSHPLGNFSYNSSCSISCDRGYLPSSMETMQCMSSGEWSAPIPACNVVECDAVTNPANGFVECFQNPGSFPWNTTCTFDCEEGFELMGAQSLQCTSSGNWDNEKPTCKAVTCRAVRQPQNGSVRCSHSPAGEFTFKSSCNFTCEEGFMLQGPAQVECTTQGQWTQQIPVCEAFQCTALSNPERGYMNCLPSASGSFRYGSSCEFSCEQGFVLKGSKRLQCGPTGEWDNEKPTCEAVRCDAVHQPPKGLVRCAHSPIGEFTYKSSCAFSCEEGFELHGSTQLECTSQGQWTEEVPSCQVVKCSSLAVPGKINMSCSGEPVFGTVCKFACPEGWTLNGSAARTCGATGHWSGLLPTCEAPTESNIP

[4] = target: T1, cynomolgus monkey E-selectin, …; assay: neutralization of sialyl Lewis A ligand binding, CHO cells, competition ELISA
Method: (§1) In a static ligand cellular adhesion assay, horse radish peroxidase (HRP) conjugated E-selectin ligand (sialyl Lewis antigen) and E-selectin antibodies compete for binding to human or cynomolgus E-selectin expressed on Chinese hamster ovary (CHO) cells. The ability of anti-E-selectin antibodies to neutralize ligand binding was assessed in a static neutralization assay using a competition enzyme-linked immunosorbent assay (ELISA) to evaluate the neutralization of the sialyl Lewis antigen to Chinese hamster ovary cells (CHO) engineered to express human or cynomolgus monkey E-selectin.
(§2) CHO cells expressing E-selectin were seeded at 12,500 cells per well into a 96 well tissue culture plate and incubated at 37° C., 5% CO₂ for 48 hours to form a confluent monolayer. Plates were subsequently washed twice with 200 μL of calcium magnesium free PBS. Anti-E-selectin antibodies or an IgG1 isotype control (IgG control) were added to the assay in the presence of a small synthetic conjugate of biotinylated, sialyl Lewis A polyacrylamide (Carbosynth LLC, OS45446) or sialyl Lewis X polyacrylamide (Glycotech, 01-045) with streptavidin/horseradish peroxidase (100 μL total) and incubated at 37° C., 5% CO₂ for 2 hours. […] Reactions were stopped using 2 M of sulfuric acid and absorbance was read at 450 nm (Spectramax M5e). Data were analyzed and graphed using GraphPad Prism software (Version 8.0.2).

[5] = target: T2, human E-selectin, cell-surface expressed; assay: as above
Method: as §1, §2

[6] = target: T1, cynomolgus monkey E-selectin, …; assay: competition ELISA on CHO cells vs sialyl Lewis ligand, further assays
Method: (§3) CHO cells expressing E-selectin were seeded at 12,500 cells per well into a 96 well tissue culture plate and incubated at 37° C., 5% CO₂ for 48 hours to form a confluent monolayer. Plates were subsequently washed twice with 200 μL of calcium magnesium free PBS. Anti-E-selectin antibodies or an IgG1 isotype control (IgG control) were added to the assay in the presence of a small synthetic conjugate of biotinylated, sialyl Lewis A polyacrylamide (Carbosynth LLC, OS45446) or sialyl Lewis X polyacrylamide (Glycotech, 01-045) with streptavidin/horseradish peroxidase (100 μL total) and incubated at 37° C., 5% CO₂ for 2 hours. Plates were then washed twice with 200 μL of calcium and magnesium free PBS. Following the incubation, the cells were washed twice with 200 μL of wash buffer containing 2 mM of calcium chloride (50 mM TRIS [trisaminomethane], 150 mM sodium chloride; 0.05% polysorbate 20, pH 7.4; 2 mM calcium chloride). Signal was developed by adding 100 μL of 1-Step Ultra TMB substrate (Thermo Scientific, 34028) and incubating for 30 minutes at room temperature. Reactions were stopped using 2 M of sulfuric acid and absorbance was read at 450 nm (Spectramax M5e). Data were analyzed and graphed using GraphPad Prism software (Version 8.0.2).

[7] = target: T2, human E-selectin, cell-surface expressed; assay: as above
Method: as §3

B1: optimized anti-E-selectin antibody 1444 (antibody, human IgG1, kappa, V domains shown)
VH: EVQLVESGGGLVQPGGSLRLSCAASGYAIRSAYMHWVRQAPGKGLEWVARIDPANGNTIYVDSVTGRFTISADNAKNSAYLQMNSLRAEDTAVYYCAMDLYSTSEYWGQGTLVTVSS
VL: DIQMTQSPSSLSASVGDRVTITCKTSQNIERYLNWYQQKPGKAPKLLIYAASSLQSGVPSRFSGSGSGTDFTLTISSLQPEDFATYFCLQDNAWPLTFGQGTKVEIKR
notes: effector-null human IgG1, kappa
HL-60 adhesion under physiological flow to cells expressing cynomolgus monkey E-selectin, IC50 [1]: 4.34 nM | HL-60 adhesion under physiological flow to human CHO-E-selectin cells, IC50 [2]: 4.41 nM | HL-60 cellular adhesion under physiological flow to purified soluble human E-selectin protein, IC50 [3]: 15.3 nM | adhesion of SCD patient blood cells under physiological flow to recombinant E-selectin, IC50 (one donor) [3]: 6.17 nM | adhesion of SCD patient blood cells under physiological flow to recombinant E-selectin, IC50 (other donor) [3]: 18.7 nM | IC50 [4]: 1.47 to 2.65 nM | IC50 [5]: 1.88 to 2.89 nM | IC50 [6]: 1.49 nM | IC50 [7]: 2.33 nM
